The source of these data is patent US20070141139A1, “COMPOSITION FOR INTESTINAL DELIVERY” (priority 2000, published 2007).

The subject of series [1] is coho salmon. The note with it: orally intubated with rbGH and antacid, 7-week trial; cited from earlier work.
The conditions of series [2]: cited from earlier work.
For series [3] the following is noted: in vivo; cited from earlier work.
For series [4] the following is noted: in vivo; cited from earlier work. This is another data set of the same source.
For series [5] the following is noted: in vivo; cited from earlier work. The source holds these as a separate data set.
In series [6] the test system is salmonids. To be noted: in vivo; cited from earlier work.
Series [7] relates to rainbow trout. As to the kind of experiment: Growth of rainbow trout after intraperitoneal injection of recombinant bST. Format: in vivo, Oncorhynchus mykiss. To be noted: IP, 20 μg bST/g live body weight weekly for 6 weeks; FIG. 4. As to the method: Intraperitoneal (IP) administration dose per fish weekly was 20 μg bST/g live body weight for 6 weeks.
The subject of series [8] is proteolytic enzymes, enzyme extract of proximal small intestine. Description: In vitro proteolytic enzyme inhibition by feed ingredients (casein hydrolysis). The format is biochemical, rainbow trout. The note with it: increasing level of inhibitor inclusion; FIGS. 5-12. As for the experimental part:
• 1. Centrifuge Sorvall model • 2. Bench-top blender • 3. Dissecting material (scissors) • 4. Centrifuge bottle • 5. Disposable cuvettes for spectrophotometer • 6. Microcentrifuge tubes 1,5 ml • 7. Spectrophotometer • 8. Vortexer • 9. Microplates reader from Biorad • 10. 50 mM Tris-HCl pH=7.5 • 11. Commassie blue staining solution • 12. BSA (1 mg\ml) standard solution • 13. TCA 20% • 14. Rainbow trouts pancreatic and duodenal tissues • 15. 0.5% casein in 50 mM Tris-HCl pH=9 • 16. 50 mM Tris-HCl+CaCl2 10 mM pH=7.5 Enzyme Extract • 1. Rainbow trout were weighed and sacrificed. • 2. Dissection was performed to remove the proximal small intestine from the fish. • 3. After weighing, the tissues were homogenised in 50 mM Tris-HCl ph=7.5 (1:10 w\v). • 4. Centrifuge at 16000×g for 30 min at 4° C. • 5. Keep the supernatant. Aliquot and store them at −20 C for further use. • 6. Perform Commassie assay to measure the amount of protein present in the enzyme extract. Commassie Blue Stain Protocol • 1. Weigh 160 mg of BSA in 10 ml of […] Tris-HCl pH=7.5. • 2. […] Read at 655 nm with the microplate reader from Biorad. […] Centrifuge at 12000×g for 5 min and read at 280 nm. […] Centrifuge at 12000×g for 5 min and read at 280 nm. […] Centrifuge at 12000×g for 5 min and read at 280 nm. […] Centrifuge at 12000×g for 5 min and read at 280 nm. […] Centrifuge at 12000×g for 5 min and read at 280 nm. […]

As to `CCCCCCCCC(=O)N(C)C[C@H](O)[C@@H](O)[C@H](O)[C@H](O)CO` [Mega-9, reference compound], the “growth performance compared to fish dosed with GH alone” value in series [1] is listed as “significantly increases growth performance”. For the same molecule, the “plasma HRP presence compared to controls” value in series [2] (co-delivery with HRP) was “almost double”.

Consider “horseradish peroxidase: tracer protein, horseradish peroxidase type 1 (Sigma)”, for which, in series [3], the “time to transport to the circulation after oral administration” value is listed as at most 1 h.

With `CC[C@@]1([C@@H]2O[C@@H]([C@H]3O[C@@](O)(CO)[C@H](C)C[C@@H]3C)C[C@@H]2C)CC[C@H]([C@]2(C)CC[C@]3(C[C@H](O)[C@@H](C)[C@@H]([C@@H](C)[C@@H](OC)[C@H](C)C(=O)O)O3)O2)O1` [monensin], the “effect upon HRP absorption” value in series [4] was “no effect upon HRP absorption”.

For “human growth hormone: human growth hormone given with a suspension of sodium salicylate in oil”, the “bioavailability (with reference to intravenous)” value in series [5] was 10-20%.

B1: bovine GH (bGH): bovine growth hormone (protein, UniProt P01246 27-217, looked up)
Somatotropin: AFPAMSLSGLFANAVLRAQHLHQLAADTFKEFERTYIPEGQRYSIQNTQVAFCFSETIPAPTGKNEAQQKSDLELLRISLLLIQSWLGPLQFLSRVFTNSLVFGTSDRVYEKLKDLEEGILALMRELEDGTPRAGQILKQTYDKFDTNMRSDDALLKNYGLLSCFRKDLHKTETYLRVMKCRRFGEASCAF
As to B1, the “increase in growth rate” value in series [6] was “two to three-fold increase in growth rate”.

B2: recombinant bST: recombinant bovine somatotropin (Monsanto Co.) (protein, UniProt P01246 27-217, looked up)
Somatotropin: B1 Somatotropin
Consider B2, for which the body weight gain result in series [7] is on record as “significantly induces increased body weight gain”.

B3: lyophylized ovalbumin: protease inhibitor component of the Oralject™ cocktail (protein, UniProt P01012 2-386, looked up)
Ovalbumin: GSIGAASMEFCFDVFKELKVHHANENIFYCPIAIMSALAMVYLGAKDSTRTQINKVVRFDKLPGFGDSIEAQCGTSVNVHSSLRDILNQITKPNDVYSFSLASRLYAEERYPILPEYLQCVKELYRGGLEPINFQTAADQARELINSWVESQTNGIIRNVLQPSSVDSQTAMVLVNAIVFKGLWEKAFKDEDTQAMPFRVTEQESKPVQMMYQIGLFRVASMASEKMKILELPFASGTMSMLVLLPDEVSGLEQLESIINFEKLTEWTSSNVMEERKIKVYLPRMKMEEKYNLTSVLMAMGITDVFSSSANLSGISSAESLKISQAVHAAHAEINEAGREVVGSAEAGVDAASVSEEFRADHPFLFCIKHIATNAVLFFGRCVSP
modifications: lyophilized
Regarding B3, the “in vitro proteolytic enzyme inhibition” value in series [8] is given as “affect to differing degrees the inhibition”.

B4: spray-dried ovalbumin: protease inhibitor component of the Oralject™ cocktail (protein, UniProt P01012 2-386, looked up)
Ovalbumin: B3 Ovalbumin
modifications: spray-dried
B4: the “in vitro proteolytic enzyme inhibition” value in series [8] is given as “affect to differing degrees the inhibition”.

B5: soya bean trypsin inhibitor: enzyme inhibitor co-delivered with HRP to rainbow trout (protein, UniProt P01070 25-205, looked up)
Trypsin inhibitor A: DFVLDNEGNPLENGGTYYILSDITAFGGIRAAPTGNERCPLTVVQSRNELDKGIGTIISSPYRIRFIAEGHPLSLKFDSFAVIMLCVGIPTEWSVVEDLPEGPAVKIGENKDAMDGWFRLERVSDDEFNNYKLVFCPQQAEDDKCGDIGISIDHDDGTRRLVVSKNKPLVVQFQKLDKESL
As to B5, the “oral absorption of HRP” value in series [2] (in vivo, po) is “increased”.
